Legend:
[1] = system: Saccharomyces cerevisiae; experiment: protein stability index of tFT-peptide fusion in deletion strain of DAS1 (PSI (0-1 scale)); higher = more stable (slower turnover)
Description: (§1)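 MPS profiling in S. cerevisiae of two library types built from selected 12-aa C-degron peptides (IN1, IN2, LN1, LN3, VN2, R1-R5, W1-W3, Atg1 and Rpa12 C-termini): saturation mutagenesis libraries and C-terminal +1 capping libraries (13 aa). Each peptide is fused to the C-terminus of a sfGFP-mCherry timer, after a GGGS linker. Cells are FACS-sorted into 8 mCherry/sfGFP bins and sequenced. PSI runs from 0 (unstable) to 1 (stable), measured once in wild type and in the das1Δ or doa10Δ background.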

[2] = system: Saccharomyces cerevisiae; experiment: protein stability index of tFT-peptide fusion in wild type (PSI (0-1 scale)); higher = more stable (slower turnover); details: genetic background: wild type
Description: as §1
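For protein stability index of tFT-peptide fusion in deletion strain of DAS1 in this document: PSI is a weighted mean of each variant's read distribution over the sorted stability bins, computed only for variants having over 10 reads in total.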
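For protein stability index of tFT-peptide fusion in wild type in this document: PSI derived as read-weighted mean over the 8 sorting bins, only variants exceeding 10 total reads kept, mCherry placed adjacent to the peptide and sfGFP distal.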

Sequence	protein stability index [1]	protein stability index [2]
PSLAASFNRVVG	0.673	0.643
PSLAASFWFVVG	0.666	0.658
PSLAASFWKVVG	0.674	0.31
PSLAASFWRIVG	0.675	0.143
PSLAASFWRQVG	0.653	0.146
PSLAASFWRTVG	0.698	0.172
PSLAASFWRVEG	0.687	0.672
PSLAASFWRVHG	0.686	0.193
PSLAASFWRVVGA	0.681	0.545
PSLAASFWRVVH	0.695	0.448
PSLAASFWRVVI	0.716	0.263
PSLAASFWRWVG	0.706	0.145
PSLAASFWSVVG	0.709	0.694
PSLAASFWWVVG	0.718	0.582
PSLAASYWRVVG	0.672	0.157
PSLAFSFWRVVG	0.676	0.111
PSLCASFWRVVG	0.68	0.129
PSLLASFWRVVG	0.695	0.145
PSMAASFWRVVG	0.699	0.126
PSQAASFWRVVG	0.695	0.161

Sequence	protein stability index [1]	protein stability index [2]
PSYAASFWRVVG	0.715	0.131
RDKRNHLIKLLN	0.612	0.1
RKILRQKMNHQN	0.69	0.162
RLIKPLPVQFLN	0.627	0.0432
RLIQPLIVQFLN	0.542	0.0468
RLIQPLMVQFLN	0.598	0.0988
RLIQPLPEQFLN	0.592	0.29
RLIQPLPVDFLN	0.624	0.716
RLIQPLPVIFLN	0.548	0.138
RLIQPLPVNFLN	0.579	0.0915
RLIQPLPVPFLN	0.607	0.313
RLIQPLPVQFLG	0.6	0.35
RLIQPLPVQFLH	0.582	0.301
RLIQPLPVQFLK	0.881	0.613
RLIQPLPVQFLM	0.595	0.13
RLIQPLPVQFLNA	0.612	0.545
RLIQPLPVQFLNY	0.641	0.433
RLIQPLPVQKLN	0.809	0.0688
RLIQPNPVQFLN	0.576	0.0748
RLITPLPVQFLN	0.605	0.0429

Sequence	protein stability index [1]	protein stability index [2]
RMIQPLPVQFLN	0.571	0.045
RTSCGYKFRTNN	0.685	0.188
SLIQPLPVQFLN	0.618	0.0779
TRGAVGGWRLVG	0.68	0.162
VPGAVGGWRLVG	0.667	0.139
VRGAVGGIRLVG	0.682	0.589
VRGAVGGRRLVG	0.675	0.641
VRGAVGGWELVG	0.63	0.551
VRGAVGGWRLDG	0.691	0.648
VRGAVGGWRLVA	0.677	0.151
VRGAVGGWRLVD	0.684	0.615
VRGAVGGWRLVGN	0.67	0.639
VRGAVGGWRLVGR	0.674	0.676
VRGAVGGWRLVH	0.666	0.233
VRGAVGGWRRVG	0.67	0.163
VRGAVGGWRSVG	0.664	0.342
VRGAVGGWYLVG	0.691	0.603
VRGAVGQWRLVG	0.663	0.147
VRGAVHGWRLVG	0.679	0.155
